The values that follow come from patent US9708383 (Novo Nordisk, dated 2017).

Experiment [1] deals with T1, human GLP-1 receptor (human, UniProt P43220 24-463).
T1 construct: whole, on cells; Used as purified membranes of the transfected hamster cells, not whole cells; also called hGLP-1
Put plainly: SPA, 2.0% vs 0.005% HSA. The procedure:
(§1) A shift in the binding affinity, $IC50$, is an indication that the derivative in question binds to albumin, and thereby a prediction of a potential protracted pharmacokinetic profile of the derivative in question in animal models.
(§2) 25 ul (microliter) of test compounds are added to Optiplate. HSA ("high albumin" experiment containing 2% HSA), or buffer ("low albumin" experiment containing 0.005% HSA), was added (50 ul). 5-10 µg protein/sample was added (50 ul) corresponding to 0.1-0.2 mg protein/ml (to be preferably optimised for each membrane preparation). SPA-particles (Wheatgerm agglutinin SPA beads, Perkin Elmer, #RPNQ0001) were added in an amount of 0.5 mg/well (50 ul). […] The plates were sealed with PlateSealer and incubated for 120 minutes at 30° C. while shaking. The plates were centrifuged (1500 rpm, 10 min) and counted in Topcounter.

Experiment [2] has as its target T1, human GLP-1 receptor. The experiment in a line: SPA, displacement of 125I-GLP-1(7-36)NH2, 0.005% HSA. The method, then:
as §1, §2
For orientation: In a radioligand displacement assay an active substance lowers the binding of a labelled ligand.

*1 amine or outer side, *2 acyl side, *3 side chain or, on linkers, in order; H or OH if unused. Where no end group is shown, it is not given here. Side-chain parts run from the residue outwards. [ ]: non-standard residue; d: D form. The star is where a group is joined. Decanoyl(10-(4-HOOC-PhO)) = O=C(O)c1ccc(OCCCCCCCCCC(=O)*)cc1; γGlu = O=C(O)[C@H](CCC(=O)[*:2])N[*:1]; C12 diacid = O=C(O)CCCCCCCCCCC(=O)*; 13‑carboxytridecanoyl = C14 diacid; AEEA = NCCOCCOCC(=O)O; Aib = CC(C)(N)C(=O)O A value given as a limit tells only on which side of the number the result lay.

In general, IC50 refers to the point on the concentration scale where inhibition reaches its midpoint. A lower IC50 goes with greater potency in that assay. With HAEGTFTSDVSK([AEEA-AEEA-γGlu-13‑carboxytridecanoyl])YLEEQAAREFIAK([AEEA-AEEA-γGlu-13‑carboxytridecanoyl])LVRGRG [GLP-1 derivative of Example 78: [Lys18,Glu22,Arg26,Lys31,Arg34]-GLP-1-(7-37)-peptide], in the experiment with human GLP-1 receptor [1], the “ratio IC50 high HSA/IC50 low HSA” value was > 1. Further, in the experiment with human GLP-1 receptor [2], the IC50 is < 1 µM.

With HAEGTFTSDVSK([AEEA-AEEA-γGlu-13‑carboxytridecanoyl])YLEEQAVREFIAK([AEEA-AEEA-γGlu-13‑carboxytridecanoyl])LVRGRG [GLP-1 derivative of Example 43: [Lys18,Glu22,Val25,Arg26,Lys31,Arg34]-GLP-1-(7-37)-peptide], the “ratio IC50 high HSA/IC50 low HSA” value with human GLP-1 receptor [1] was > 1. In addition, the IC50 in the experiment with human GLP-1 receptor [2] is < 1 µM.

For HAEGTFTSDVSK([AEEA-AEEA-γGlu-Decanoyl(10-(4-HOOC-PhO))])YLEEQAVRK([AEEA-AEEA-γGlu-Decanoyl(10-(4-HOOC-PhO))])FIAWLVQGRG [GLP-1 derivative of Example 42: [Lys18,Glu22,Val25,Arg26,Lys27,Gln34]-GLP-1-(7-37)-peptide], the “ratio IC50 high HSA/IC50 low HSA” value in the experiment with human GLP-1 receptor [1] is > 1. For the same molecule, the concentration for half-maximal inhibition (IC50) with human GLP-1 receptor [2] was < 1 µM.

B1: GLP-1 derivative of Example 47: [Lys18,Glu22,Val25,Arg26,Lys27,His31,Arg34]-GLP-1-(7-37)-peptide (peptide)
peptide: HAEGTFTSDVSK([AEEA-AEEA-γGlu-13‑carboxytridecanoyl])YLEEQAVRKFIAHLVRGRG
notes: Printed name omits the second acylation; printed masses fit a double-acylated compound
Turning to B1, in the experiment with human GLP-1 receptor [1], the “ratio IC50 high HSA/IC50 low HSA” value was > 1. Moreover, the IC50 in the experiment with human GLP-1 receptor [2] is < 1 µM.

As to HAEGTFTSDVSK([AEEA-AEEA-γGlu-Decanoyl(10-(4-HOOC-PhO))])YLEEQAAK([AEEA-AEEA-γGlu-Decanoyl(10-(4-HOOC-PhO))])EFIAWLVQGRG [GLP-1 derivative of Example 38: [Lys18,Glu22,Gln34]-GLP-1-(7-37)-peptide], in the experiment with human GLP-1 receptor [1], the “ratio IC50 high HSA/IC50 low HSA” value was > 1. In the experiment with human GLP-1 receptor [2], the IC50 is < 1 µM.

With HAEGTFTSDVSK([AEEA-AEEA-γGlu-13‑carboxytridecanoyl])YLEEQAVREFIAK([AEEA-AEEA-γGlu-13‑carboxytridecanoyl])LVQGRG [GLP-1 derivative of Example 44: [Lys18,Glu22,Val25,Arg26,Lys31,Gln34]-GLP-1-(7-37)-peptide], the “ratio IC50 high HSA/IC50 low HSA” value with human GLP-1 receptor [1] was > 1. Moreover, the IC50 with human GLP-1 receptor [2] was < 1 µM.

Consider HAEGTFTSDVSK([AEEA-AEEA-γGlu-13‑carboxytridecanoyl])YLEEQAVRK([AEEA-AEEA-γGlu-13‑carboxytridecanoyl])FIAWLVRGRG [GLP-1 derivative of Example 46: [Lys18,Glu22,Val25,Arg26,Lys27,Arg34]-GLP-1-(7-37)-peptide], for which the “ratio IC50 high HSA/IC50 low HSA” value with human GLP-1 receptor [1] is > 1. The IC50 with human GLP-1 receptor [2] was < 1 µM.

Regarding HAEGTFTSDVSK([AEEA-AEEA-γGlu-Decanoyl(10-(4-HOOC-PhO))])YLEGQAAK([AEEA-AEEA-γGlu-Decanoyl(10-(4-HOOC-PhO))])EFIAWLVQGRG [GLP-1 derivative of Example 34: [Lys18,Gln34]-GLP-1-(7-37)-peptide], the “ratio IC50 high HSA/IC50 low HSA” value with human GLP-1 receptor [1] was > 1. Moreover, the IC50 with human GLP-1 receptor [2] is < 1 µM.

Consider HAEGTFTSDVSK([AEEA-AEEA-γGlu-Decanoyl(10-(4-HOOC-PhO))])YLEEQAAHK([AEEA-AEEA-γGlu-Decanoyl(10-(4-HOOC-PhO))])FIAWLVQGRG [GLP-1 derivative of Example 35: [Lys18,Glu22,His26,Lys27,Gln34]-GLP-1-(7-37)-peptide], for which the “ratio IC50 high HSA/IC50 low HSA” value with human GLP-1 receptor [1] is > 1. Also, in the experiment with human GLP-1 receptor [2], the IC50 is < 1 µM.

In the case of HAEGTFTSDVSK([AEEA-AEEA-γGlu-C12 diacid])YLEEQAAK([AEEA-AEEA-γGlu-C12 diacid])EFIAWLVQGRG [GLP-1 derivative of Example 40: [Lys18,Glu22,Gln34]-GLP-1-(7-37)-peptide], the “ratio IC50 high HSA/IC50 low HSA” value in the experiment with human GLP-1 receptor [1] was > 1. In the experiment with human GLP-1 receptor [2], the half-inhibitory concentration (IC50) is < 1 µM.

Consider H[Aib]EGTFTSDVSK([AEEA-AEEA-γGlu-13‑carboxytridecanoyl])YLEEQAARK([AEEA-AEEA-γGlu-13‑carboxytridecanoyl])FIAHLVRG (ends and bridges not checked) [GLP-1 derivative of Example 9: [Aib8,Lys18,Glu22,Arg26,Lys27,His31,Arg34]-GLP-1-(7-35)-peptide], for which the “ratio IC50 high HSA/IC50 low HSA” value with human GLP-1 receptor [1] was > 1. The IC50 with human GLP-1 receptor [2] is < 1 µM.
